Two molecules from patent US20220251184A1 (Regeneron, published 2022) can be followed below.

The target in assay [1] is T1, human BMP6 (R&D Systems, Cat #507-BP) (human, UniProt P22004 375-513, limits assumed).
T1 sequence: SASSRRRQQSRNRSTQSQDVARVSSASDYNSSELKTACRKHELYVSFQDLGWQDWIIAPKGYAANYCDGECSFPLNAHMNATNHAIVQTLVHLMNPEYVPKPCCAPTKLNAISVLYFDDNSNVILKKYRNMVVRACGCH
Nature of the assay: cell-based or functional assay.

Assay [2] deals with T2, mouse BMP6 (R&D Systems, Cat #6325-BM) (mouse, UniProt P20722 372-510, limits assumed).
T2 sequence: T1 sequence with A21S, V23G, S25G, A26S, S31G, R39K
The assay is described as follows: cell-based or functional assay.

In assay [3] the target is T2, mouse BMP6 (R&D Systems, Cat #6325-BM). Nature of the assay: SPR (MASS-1), mAb captured on anti-human Fc, mBMP6 in solution, 25 C. Here is the method: Equilibrium dissociation constants (KD values) for human and mouse BMP6 binding to purified anti-BMP6 monoclonal antibodies of this invention were determined using a real-time surface plasmon resonance (SPR) biosensor instrument, MASS-1. All binding studies were performed in 10 mM HEPES, 150 mM NaCl, 3 mM EDTA, 1 μg/mL Heparin, and 0.05% v/v Surfactant Tween-20, pH 7.4 (HBS-EHT) running buffer at 25° C. and 37° C. The HCA sensor surface was first derivatized by amine coupling the monoclonal mouse anti-human Fc antibody (GE, #BR100839) and anti-BMP6 monoclonal antibodies were individually captured. Different concentrations of human BMP6 reagents (hBMP6; R&D Systems, Cat #507-BP; 60 nM-0.94 nM; 4-fold serial dilution) or mouse BMP6 (mBMP6; R&D Systems, Cat #6325-BM; 60 nM and 15 nM) prepared in HBS-EHT running buffer were injected over the captured anti-BMP6 monoclonal antibody for 4 minutes at a flow rate of 30 μL/minute, while the dissociation of BMP6 reagent bound to captured anti-BMP6 monoclonal antibody was monitored for 10 minutes in HBS-EHT running buffer. Kinetic association (kₐ) and dissociation (kd) rate constants were determined by fitting the real-time binding sensorgrams to a 1:1 binding model with mass transport limitation using Scrubber 2.0c software. Binding dissociation equilibrium constant (KD) and dissociative half-life (t½) for different anti-BMP6 monoclonal antibodies were calculated from the kinetic rate constants as: […]

Assay [4] concerns the target T3, Human BMP10 (human, UniProt O95393 317-424).
T3 sequence (looked up): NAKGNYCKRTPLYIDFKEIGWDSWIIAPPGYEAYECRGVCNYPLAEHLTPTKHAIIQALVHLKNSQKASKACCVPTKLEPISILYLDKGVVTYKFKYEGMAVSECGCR
The assay is described as follows: BLI (Octet HTX), mAb captured on Protein A sensor, 100 nM ligand, 25 C. Here is the method:
(§1) Binding cross-reactivity of anti-BMP6 monoclonal antibodies to BMP6 family members, (Human: BMP6, BMP5, BMP7, BMP8A, BMP9, BMP10, BMP12, BMP14, BMP3b, Activin A, and GDF3 and mouse: BMP6 and GDF6) was determined using a real-time Bio-Layer Interferometry (BLI) biosensor using Octet HTX instrument. All binding studies were performed in 10 mM HEPES, 150 mM NaCl, 3 mM EDTA, 1 mg/mL BSA, 50 μg/mL Heparin, and 0.05% v/v Surfactant Tween-20, pH 7.4 (HBS-EBHT) buffer at 25° C. with the plate shaking at a speed of 1000 rpm. To assess binding cross-reactivity, Protein A coated Octet biosensor (Pall ForteBio Corp., #18-5010) was first dipped in wells containing […] of anti-BMP6 monoclonal antibodies for 4 minutes followed by submerging in wells containing 100 nM of different BMP6 family members for 4 minutes. The biosensors were washed in HBS-EBHT buffer in between every step of the experiment. At the end of each cycle, the Protein A biosensor was regenerated using three alternate 5 second dips in 10 mM Glycine pH 2.0 and 10 second dip HBS-EBHT buffer. The real-time binding response was monitored during the course of the experiment and the binding response at the end of every step was recorded and tabulated as shown in Tables 8A and 8B.
A general note: In BLI a coated tip is dipped into the sample, and binding shifts an interference pattern.

Assay [5] concerns the target T4, Human BMP14/GDF5 (human, UniProt P43026 382-501).
T4 sequence (looked up): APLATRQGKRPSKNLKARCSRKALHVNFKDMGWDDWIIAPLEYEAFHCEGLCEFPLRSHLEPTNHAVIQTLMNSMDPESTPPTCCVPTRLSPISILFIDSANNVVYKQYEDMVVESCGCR
The description is as above. Here is the method:
as §1

The target in assay [6] is T1, human BMP6 (R&D Systems, Cat #507-BP). Described as above. Here is the method: as §1
The target in assay [7] is T2, mouse BMP6 (R&D Systems, Cat #6325-BM). Described as above. Here is the method:
as §1

Substitutions are numbered along the chain they refer to.

B1: H4H17871P (antibody, V domains shown)
VH: EVQLVESGGGLVQPGGSLRLSCAASGFTFNNYAMSWVRQAPGKGLEWVSAISGSGDSTYYADSVKGRFTISRDNSKNTLYLQMNSLRAEDTAVYYCAKRSRSSPFDPWGQGTLVTVSS
VL: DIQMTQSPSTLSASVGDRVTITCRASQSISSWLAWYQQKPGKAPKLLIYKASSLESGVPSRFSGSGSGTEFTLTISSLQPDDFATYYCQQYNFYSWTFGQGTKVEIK
notes: Fully human antibody; also called anti-BMP6 monoclonal antibody; BMP6 antibody of the invention
As usually defined, the Kd is the free concentration of one partner at which half of the binding sites on the other are occupied at equilibrium, for simple one-to-one binding. High values mean lower affinity, low ones higher affinity. As a reminder, the koff is a measure of how fast the partners let go of each other. Read a high koff as fast dissociation. As a reminder, the kon is the second-order rate constant of association. As to B1, the “IC50 [M], inhibition of 1 nM hBMP6 activation of Hep3B/BRE-luc cells (luciferase)” value in assay [1] was determined as 1.6e-09 M. For the same molecule, the “IC50 [M], inhibition of 5 nM mBMP6 activation of W-20-17/BRE-luc cells (luciferase)” value in assay [2] came out at 1.1e-08 M. The equilibrium dissociation constant (Kd) in assay [3] was 3.39 nM. In assay [3], this molecule yielded a koff of 0.000127 s⁻¹. In assay [3], this molecule registered an on-rate constant (kon) of 37400 M⁻¹ s⁻¹. Further, the t1/2 in assay [3] amounted to 1.52 h. Also, the binding response in assay [4] is 0.01 nm; in assay [5], -0.01 nm; in assay [6], 0.21 nm; in assay [7], 0.09 nm.

B2: H4H17855P (antibody, V domains shown)
VH: B1 VH with N30S, N31S, D56G, S57R, A61T, I70M, S100P, R101Y, S102N
VL: EIVLTQSPGTLSLSPGEGATLSCRASQSVSSSYLAWYQQKPGQAPRLLIYGASSRATGIPDRFSGSGSGTDFTLTISRLEPEDFVVYYCQHFGGTPFTFGGGTKVEIK
notes: as for B1
As for B2, in assay [1], the “IC50 [M], inhibition of 1 nM hBMP6 activation of Hep3B/BRE-luc cells (luciferase)” value turned out to be 2.5e-10 M. Besides, the “IC50 [M], inhibition of 5 nM mBMP6 activation of W-20-17/BRE-luc cells (luciferase)” value in assay [2] came out at 1.9e-09 M. In assay [3], this molecule gave a Kd of 3.55 nM, an off-rate (koff) of 0.00013 s⁻¹, a kon of 36600 M⁻¹ s⁻¹ and a t1/2 of 1.48 h. Besides, the binding response in assay [4] was -0.01 nm. Moreover, the binding response in assay [5] is -0.02 nm. The binding response in assay [6] stood at 0.29 nm. The molecule also had a binding response in assay [7] of 0.09 nm.
